Laboratory results as given in article PMC3618048, “A Novel Alkaliphilic Bacillus Esterase Belongs to the 13th Bacterial Lipolytic Enzyme Family” (PLoS ONE, 2013).
One block for each molecule: values may come before it.

Experiments:
[1] = target: esterase EstOF4 from Bacillus pseudofirmus OF4 (Bacillus pseudofirmus OF4); test: SEC; Superdex200 10/30 column calibrated with cytochrome C, carbonic anhydrase, bovine serum albumin and alcohol dehydrogenase; native molecular weight of purified EstOF4
purified protein [2] = substrate: CC(=O)Oc1ccc([N+](=O)[O-])cc1; test: purified protein; format: biochemical, Alkalihalophilus pseudofirmus; conditions: 50 mM Tris-HCl pH 8.5, 50 °C
purified protein [3] = substrate: CCC(=O)Oc1ccc([N+](=O)[O-])cc1; test: purified protein; format: biochemical, Alkalihalophilus pseudofirmus; conditions: 50 mM Tris-HCl pH 8.5, 50 °C
purified protein [4] = substrate: CCCC(=O)Oc1ccc([N+](=O)[O-])cc1; test: purified protein; format: biochemical, Alkalihalophilus pseudofirmus; conditions: 50 mM Tris-HCl pH 8.5, 50 °C
purified protein [5] = substrate: CCCCCC(=O)Oc1ccc([N+](=O)[O-])cc1; test: purified protein; format: biochemical, Alkalihalophilus pseudofirmus; conditions: 50 mM Tris-HCl pH 8.5, 50 °C
purified protein [6] = substrate: CCCCCCCC(=O)Oc1ccc([N+](=O)[O-])cc1; test: purified protein; format: biochemical, Alkalihalophilus pseudofirmus; conditions: 50 mM Tris-HCl pH 8.5, 50 °C
purified protein [7] = substrate: CCCCCCCCCC(=O)Oc1ccc([N+](=O)[O-])cc1; test: purified protein; format: biochemical, Alkalihalophilus pseudofirmus; conditions: 50 mM Tris-HCl pH 8.5, 50 °C
purified protein [8] = substrate: CCCCCCCCCCCC(=O)Oc1ccc([N+](=O)[O-])cc1; test: purified protein; format: biochemical, Alkalihalophilus pseudofirmus; conditions: 50 mM Tris-HCl pH 8.5, 50 °C

stoichiometry N [1]: 2
Molecule: esterase EstOF4 from Bacillus pseudofirmus OF4 (enzyme)

B1: EstOF4 (Alkalihalophilus pseudofirmus OF4) (protein)
chain: MKVVAPKPFTFEGGDRAVLLLHGFTGTTADVRMIGRHLQKEGYTCHAPLYKGHGVPPEELVHTGPEDWWKDVEAGYNYLKEKGHEEIAVCGLSLGGVFSLKIGYTLPVKGIVPMCAPVRPKTEDAMYKGVLAYAREYKKREQKSDDVINQEMEAFKPMGTLSALGELIQDVHNHLDHIYSPTFVVQARNDEMIDVESANIIHDQIESDEKSLKWYEESGHVITLDKEKEQLHEDILQFLEGLDWTV
notes: full-length ORF (246 aa, 741 bp, no signal peptide), pET-28a NdeI/BamHI, N-terminal His tag, E. coli BL21(DE3); about 35 kDa SDS-PAGE, 64 kDa native dimer
Km (purified protein [2]): 37 ± 6 µM
kcat (purified protein [2]): 2.07 ± 0.0667 s⁻¹
kcat/Km (purified protein [2]): 56700 M⁻¹ s⁻¹
Km (purified protein [3]): 94 ± 9 µM
kcat (purified protein [3]): 3.52 ± 0.0667 s⁻¹
kcat/Km (purified protein [3]): 38300 M⁻¹ s⁻¹
Km (purified protein [4]): 90 ± 9 µM
kcat (purified protein [4]): 3.65 ± 0.0667 s⁻¹
kcat/Km (purified protein [4]): 40000 M⁻¹ s⁻¹
Km (purified protein [5]): 60 ± 6 µM
kcat (purified protein [5]): 5.48 ± 0.1 s⁻¹
kcat/Km (purified protein [5]): 91700 M⁻¹ s⁻¹
Km (purified protein [6]): 102 ± 3 µM
kcat (purified protein [6]): 1.75 ± 0.0333 s⁻¹
kcat/Km (purified protein [6]): 16700 M⁻¹ s⁻¹
Km (purified protein [7]): 173 ± 8 µM
kcat (purified protein [7]): 1.17 ± 0.0667 s⁻¹
kcat/Km (purified protein [7]): 6670 M⁻¹ s⁻¹
Km (purified protein [8]): 42 ± 5 µM
kcat (purified protein [8]): 0.1 ± 0.0167 s⁻¹
kcat/Km (purified protein [8]): 1670 M⁻¹ s⁻¹
